What was measured:
[1] = molecular target: PDGF-BB (platelet-derived growth factor BB) (Homo sapiens, UniProt P01127 P01127:82-190); experiment: 33-mer described previously (US 5,723,594); measurement conditions not stated; details: tags: R&D Systems, carrier free lyophilized; chain copies: 2 (inferred, homodimer)
[2] = molecular target: T1, Wheat germ agglutinin (WGA) (Triticum vulgare, UniProt P10968 P10968:27-197); experiment: filter; 10 nM aptamer and 10 nM WGA, HBSMC pH 7.4, room temperature; displaced by (GlcNAc)2, (GlcNAc)3 and (GlcNAc)4, not by GlcNAc; details: tags: EY Laboratories; chain copies: 2; label: 5'-32P
T1 sequence: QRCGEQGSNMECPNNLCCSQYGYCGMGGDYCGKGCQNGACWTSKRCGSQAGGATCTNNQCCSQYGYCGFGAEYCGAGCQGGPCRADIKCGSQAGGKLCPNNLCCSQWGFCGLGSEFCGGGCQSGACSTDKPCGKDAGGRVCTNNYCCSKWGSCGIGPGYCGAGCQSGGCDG
Procedure: Small molecule oligosaccharides were screened for their ability to compete with WGA aptamer 11.20 for binding to wheat germ agglutinin protein. The small molecule (or cold 11.20) competitors at varying concentrations were mixed with the 5′-32P end-labeled 11.20 ligand at room temperature. Then WGA was added to the mixture and allowed to equilibrate for 60 minutes at room temperature. The competition mixtures (90 μL volume) all had 32P end-labeled 11.20 at 10 nM, WGA at 10 nM and were in 25 mM Hepes, 137 mM NaCl, 2.7 mM KCl, 1 mM MgCl₂, 1 mM CaCl₂, 0.067% human serum albumin (HSA), at pH 7.4 (HBSMC). Aptamer bound to WGA was separated from free aptamer by filtration through pre-washed […] nitrocellulose membrane filters. Filters were washed with 5 mL HBSMC at room temperature. The filters were placed in tubes with scintillant and the radioactivity counted to quantitate the fraction of 32P end-labeled 11.20 bound at each competitor concentration.

Sequence of PDGF-BB (platelet-derived growth factor BB) (P01127 82-190, one chain of several): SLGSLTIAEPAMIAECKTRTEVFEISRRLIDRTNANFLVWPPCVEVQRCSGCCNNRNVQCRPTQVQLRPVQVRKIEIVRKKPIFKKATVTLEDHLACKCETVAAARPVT

B1: 20ta (ssDNA)
DNA: CGGGCGCGTTCTTCGTGGTTACTTTTAGTCCCG
**Q.** For B1, which Kd [1] is on record?
**A.** 0.05 nM

B2: 11.20 (ssRNA)
RNA: GGGAAAAGCGAAUCAUACACAAGAUUGGUCGUACUGGACAGAGCCGUGGUAGAGGGAUUGGGACAAAGUGUCAGCUCCGCCAGAGACCAACCGAGAA
modifications: 2'-NH2 pyrimidines
**Q.** Does B2 bind [2]?
**A.** binds

— US20020197617, “Aptamers as reagents for high throughput screening” (GILEAD SCIENCES, INC., published 2002)
